Measurements as given in US20240270865A1 (INNATE PHARMA, published 2024).

molecular target: T1, recombinant human soluble CD73 protein (cloned huCD73 with C-terminal 6xHis tag) (human, UniProt P21589 27-547); assay: SPR, recombinant CD73 protein
T1 construct: also called recombinant CD73 protein; CD73 recombinant protein
T1 sequence: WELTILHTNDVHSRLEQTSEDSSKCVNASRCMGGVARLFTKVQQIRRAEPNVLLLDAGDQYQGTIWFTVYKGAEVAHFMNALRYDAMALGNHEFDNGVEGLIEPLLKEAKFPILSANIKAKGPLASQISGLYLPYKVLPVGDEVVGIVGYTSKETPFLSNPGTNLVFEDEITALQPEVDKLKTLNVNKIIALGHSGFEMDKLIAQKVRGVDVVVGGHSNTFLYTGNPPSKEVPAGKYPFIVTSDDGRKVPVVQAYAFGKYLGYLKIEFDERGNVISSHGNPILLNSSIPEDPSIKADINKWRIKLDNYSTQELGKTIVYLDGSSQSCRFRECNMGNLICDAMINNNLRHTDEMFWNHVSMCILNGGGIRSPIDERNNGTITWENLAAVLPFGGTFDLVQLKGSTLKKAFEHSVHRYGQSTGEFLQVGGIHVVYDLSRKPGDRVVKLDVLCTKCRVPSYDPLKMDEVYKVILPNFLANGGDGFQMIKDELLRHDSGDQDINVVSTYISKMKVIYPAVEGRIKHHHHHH
Method: SPR measurements were performed on a Biacore™ T200 apparatus at 25° C. Protein-A (GE Healthcare) was immobilized on a Sensor Chip CM5 (GE Healthcare). […] The entire sensorgram sets were fitted using the 1:1 kinetic binding model. Bivalent affinities and kinetic association and dissociation rate constants are calculated.

| Binder | binding result |
| --- | --- |
| H2L2 (antibody, human IgG1, V domains shown, also called H2 variant) VH: QIQLVQSGAEVKKPGASVKVSCKASGYAFTSYNMYWVRQAPGQSLEWMGYIDPYNGGSSYNLTFKGRVTITVDKSASTAYMELSSLRSEDTAVYYCARGYGNYKAWFAYWGQGTLVTVSS VL: DIQMTQSPSSLSASVGDRVTITCKASQSVSNDVAWYQQKPGKAPKLLIYYASTRYTGVPDRFSGSGYGTDFTFTISSLQPEDIATYYCQQDYSSLTFGQGTKLEIK | binds |
| H1L3 (antibody, human IgG1, V domains shown, also called H1 variant) VH: QIQLVQSGAEVKKPGASVKVSCKASGYTFTSYNMYWVRQAPGQRLEWMGYIDPYNGGSSYNLTFKGRVTITRDKSASTAYMELSSLRSEDTAVYYCARGYGNYKAWFAYWGQGTLVTVSS VL: DVQMTQSPSSLSASVGDRVTITCKASQSVSNDVAWYQQKPGKAPKLLIYYASTRYTGVPDRFSGSGYGTDFTFTISSLQPEDIATYYCQQDYSSLTFGQGTKLEIK | binds |
| H4L2 (antibody, human IgG1, V domains shown, also called H4 variant) VH: QIQLVQSGAEVKKPGASVKVSCKASGYAFASYNMYWVRQAPGQSLEWIGYIDPYNGGSSYNLTFKGKATLTVDKSASTAYMELSSLRSEDTAVYYCARGYGNYKAWFAYWGQGTLVTVSS VL: DIQMTQSPSSLSASVGDRVTITCKASQSVSNDVAWYQQKPGKAPKLLIYYASTRYTGVPDRFSGSGYGTDFTFTISSLQPEDIATYYCQQDYSSLTFGQGTKLEIK | binds |
| H4L1 (antibody, human IgG1, V domains shown, also called H4 variant) VH: QIQLVQSGAEVKKPGASVKVSCKASGYAFASYNMYWVRQAPGQSLEWIGYIDPYNGGSSYNLTFKGKATLTVDKSASTAYMELSSLRSEDTAVYYCARGYGNYKAWFAYWGQGTLVTVSS VL: DIQMTQSPSSLSASVGDRVTITCKASQSVSNDVAWYQQKPGKAPKLLIYYASTRYTGVPSRFSGSGYGTDFTFTISSLQPEDIATYYCQQDYSSLTFGQGTKLEIK | binds |
| H4L4 (antibody, human IgG1, V domains shown, also called H4 variant) VH: QIQLVQSGAEVKKPGASVKVSCKASGYAFASYNMYWVRQAPGQSLEWIGYIDPYNGGSSYNLTFKGKATLTVDKSASTAYMELSSLRSEDTAVYYCARGYGNYKAWFAYWGQGTLVTVSS VL: DVQMTQSPSSLSASVGDRVTITCKASQSVSNDVAWYQQKPGKAPKLLIYYASTRYTGVPDRFSGSGYGTDFTFTISSLQPEDIATYFCQQDYSSLTFGQGTKLEIK | binds |
| H4L3 (antibody, human IgG1, V domains shown, also called H4 variant) VH: QIQLVQSGAEVKKPGASVKVSCKASGYAFASYNMYWVRQAPGQSLEWIGYIDPYNGGSSYNLTFKGKATLTVDKSASTAYMELSSLRSEDTAVYYCARGYGNYKAWFAYWGQGTLVTVSS VL: DVQMTQSPSSLSASVGDRVTITCKASQSVSNDVAWYQQKPGKAPKLLIYYASTRYTGVPDRFSGSGYGTDFTFTISSLQPEDIATYYCQQDYSSLTFGQGTKLEIK | binds |
| H1L2 (antibody, human IgG1, V domains shown, also called H1 variant) VH: QIQLVQSGAEVKKPGASVKVSCKASGYTFTSYNMYWVRQAPGQRLEWMGYIDPYNGGSSYNLTFKGRVTITRDKSASTAYMELSSLRSEDTAVYYCARGYGNYKAWFAYWGQGTLVTVSS VL: DIQMTQSPSSLSASVGDRVTITCKASQSVSNDVAWYQQKPGKAPKLLIYYASTRYTGVPDRFSGSGYGTDFTFTISSLQPEDIATYYCQQDYSSLTFGQGTKLEIK | binds |
| H2L4 (antibody, human IgG1, V domains shown, also called H2 variant) VH: QIQLVQSGAEVKKPGASVKVSCKASGYAFTSYNMYWVRQAPGQSLEWMGYIDPYNGGSSYNLTFKGRVTITVDKSASTAYMELSSLRSEDTAVYYCARGYGNYKAWFAYWGQGTLVTVSS VL: DVQMTQSPSSLSASVGDRVTITCKASQSVSNDVAWYQQKPGKAPKLLIYYASTRYTGVPDRFSGSGYGTDFTFTISSLQPEDIATYFCQQDYSSLTFGQGTKLEIK | binds |
| H2L3 (antibody, human IgG1, V domains shown, also called H2 variant) VH: QIQLVQSGAEVKKPGASVKVSCKASGYAFTSYNMYWVRQAPGQSLEWMGYIDPYNGGSSYNLTFKGRVTITVDKSASTAYMELSSLRSEDTAVYYCARGYGNYKAWFAYWGQGTLVTVSS VL: DVQMTQSPSSLSASVGDRVTITCKASQSVSNDVAWYQQKPGKAPKLLIYYASTRYTGVPDRFSGSGYGTDFTFTISSLQPEDIATYYCQQDYSSLTFGQGTKLEIK | binds |
| H1L4 (antibody, human IgG1, V domains shown, also called H1 variant) VH: QIQLVQSGAEVKKPGASVKVSCKASGYTFTSYNMYWVRQAPGQRLEWMGYIDPYNGGSSYNLTFKGRVTITRDKSASTAYMELSSLRSEDTAVYYCARGYGNYKAWFAYWGQGTLVTVSS VL: DVQMTQSPSSLSASVGDRVTITCKASQSVSNDVAWYQQKPGKAPKLLIYYASTRYTGVPDRFSGSGYGTDFTFTISSLQPEDIATYFCQQDYSSLTFGQGTKLEIK | binds |
| H3L2 (antibody, human IgG1, V domains shown, also called H3 variant) VH: QIQLVQSGAEVKKPGASVKVSCKASGYAFTSYNMYWVRQAPGQSLEWIGYIDPYNGGSSYNLTFKGKATITVDKSASTAYMELSSLRSEDTAVYYCARGYGNYKAWFAYWGQGTLVTVSS VL: DIQMTQSPSSLSASVGDRVTITCKASQSVSNDVAWYQQKPGKAPKLLIYYASTRYTGVPDRFSGSGYGTDFTFTISSLQPEDIATYYCQQDYSSLTFGQGTKLEIK | binds |
| H3L3 (antibody, human IgG1, V domains shown, also called H3 variant) VH: QIQLVQSGAEVKKPGASVKVSCKASGYAFTSYNMYWVRQAPGQSLEWIGYIDPYNGGSSYNLTFKGKATITVDKSASTAYMELSSLRSEDTAVYYCARGYGNYKAWFAYWGQGTLVTVSS VL: DVQMTQSPSSLSASVGDRVTITCKASQSVSNDVAWYQQKPGKAPKLLIYYASTRYTGVPDRFSGSGYGTDFTFTISSLQPEDIATYYCQQDYSSLTFGQGTKLEIK | binds |
| H3L1 (antibody, human IgG1, V domains shown, also called H3 variant) VH: QIQLVQSGAEVKKPGASVKVSCKASGYAFTSYNMYWVRQAPGQSLEWIGYIDPYNGGSSYNLTFKGKATITVDKSASTAYMELSSLRSEDTAVYYCARGYGNYKAWFAYWGQGTLVTVSS VL: DIQMTQSPSSLSASVGDRVTITCKASQSVSNDVAWYQQKPGKAPKLLIYYASTRYTGVPSRFSGSGYGTDFTFTISSLQPEDIATYYCQQDYSSLTFGQGTKLEIK | binds |
| H1L1 (antibody, human IgG1, V domains shown, also called H1 variant) VH: QIQLVQSGAEVKKPGASVKVSCKASGYTFTSYNMYWVRQAPGQRLEWMGYIDPYNGGSSYNLTFKGRVTITRDKSASTAYMELSSLRSEDTAVYYCARGYGNYKAWFAYWGQGTLVTVSS VL: DIQMTQSPSSLSASVGDRVTITCKASQSVSNDVAWYQQKPGKAPKLLIYYASTRYTGVPSRFSGSGYGTDFTFTISSLQPEDIATYYCQQDYSSLTFGQGTKLEIK | binds |
| H3L4 (antibody, human IgG1, V domains shown, also called H3 variant) VH: QIQLVQSGAEVKKPGASVKVSCKASGYAFTSYNMYWVRQAPGQSLEWIGYIDPYNGGSSYNLTFKGKATITVDKSASTAYMELSSLRSEDTAVYYCARGYGNYKAWFAYWGQGTLVTVSS VL: DVQMTQSPSSLSASVGDRVTITCKASQSVSNDVAWYQQKPGKAPKLLIYYASTRYTGVPDRFSGSGYGTDFTFTISSLQPEDIATYFCQQDYSSLTFGQGTKLEIK | binds |
| H2L1 (antibody, human IgG1, V domains shown, also called H2 variant) VH: QIQLVQSGAEVKKPGASVKVSCKASGYAFTSYNMYWVRQAPGQSLEWMGYIDPYNGGSSYNLTFKGRVTITVDKSASTAYMELSSLRSEDTAVYYCARGYGNYKAWFAYWGQGTLVTVSS VL: DIQMTQSPSSLSASVGDRVTITCKASQSVSNDVAWYQQKPGKAPKLLIYYASTRYTGVPSRFSGSGYGTDFTFTISSLQPEDIATYYCQQDYSSLTFGQGTKLEIK | binds |
